The results in this text go back to US20210244792A1.

This assay addresses complement C5. Briefly: direct binding to C5 (FIG. 4C); method not described.

Usually IC50 stands for the midpoint of a concentration-inhibition curve. “EV576 protein (native, purified from salivary gland extracts of the soft tick Ornithodoros moubata) (from UniProt Q5YD59 19-168)”: the concentration for half-maximal inhibition (IC50) is 20 µg/mL.
